# Measurements taken from paper PMC8173604 (Cell, 2021).
# Target: purified HLA-A*02:01 MHC molecule (human | )
# Assay: radioligand binding
row,Binder,IC50
1,"MLLGSMLYM [MLLGSMLYM, HLA-I peptide from S.iORF1/2]",< 0.5 nM
2,"GLITLSYHL [GLITLSYHL, HLA-I peptide from S.iORF1/2]",< 0.5 nM
